Experimental data from patent US20110034399A1, “Liquid and Freeze Dried Formulations” (IPSEN PHARMA S.A.S., priority 2008, published 2011).

Assay: Formulation stability of lyophilisate form (HPLC content and purity, pH) on storage
Type: physicochemical
Experimental: Stabilities measurements were performed by means of High Performance Liquid Chromatographic (HPLC) method. The HPLC system a HPLC Waters Alliance 2695 completed by detection system 2487 Dual λ Absorbance Detector, the column used was a C18, 250×4.6 mm. All details concerning instrumental conditions are gathered in table 6. Elution conditions are gathered in table 7. Two pharmaceutical forms were studied in parallel for stability assays over six months at +5° C. and +25° C./60% RH (relative humidity) and +40° C./75% RH. Measurements were carried out in parallel with (in either wfi, or 5% dextrose as solvent) and a lyophilisate (drug substance on its own) or as second variant of formulations with an additional bulking agents such as mannitol, glycine and trehalose) in WFI. […] C (% initial) represents the content expressed in percentage at the moment T with regard to the content at the moment Tzero. […] In table 7 are gathered the elution program, the ratio of each eluant (mobile phase) used for measurement of formulation stabilities. […] Thereafter 20 ml of acetic acid 0.1 N were added under shaking by means of a vortex and if required additionally dissolved in ultrasonic bath in order to obtain a total dissolution. Weight of brut BI[…] 760 was calculated by means of the following relation: […]

CCCN1CC(CSCC(=O)N[C@H](CCCCNC(=O)CSC[C@@H]2C[C@@H]3c4cccc5[nH]cc(c45)C[C@H]3N(CCC)C2)C(=O)N[C@H]2CSSC[C@@H](C(=O)N[C@H](C(N)=O)[C@@H](C)O)NC(=O)[C@H](CC)NC(=O)[C@H](CCCCN)NC(=O)[C@@H](Cc3c[nH]c4ccccc34)NC(=O)[C@H](Cc3ccc(O)cc3)NC2=O)C[C@@H]2c3cccc4[nH]cc(c34)C[C@H]21 (stereo partly drawn) [BIM23A760, Dop2-DLys(Dop2)-c(Cys-Tyr-DTrp-Lys-Abu-Cys)-Thr-NH2]
C (% initial) (+5° C., T3 Months): 103.6% initial | P (% a/a) (+5° C., T3 Months): 96.10% a/a | pH (+5° C., T3 Months): 6.64 | C (% initial) (+5° C., T6 Months): 73.0% initial | P (% a/a) (+5° C., T6 Months): 96.80% a/a | pH (+5° C., T6 Months): 5.81 | C (% initial) (+25° C./60% RH, T0): 100% initial | P (% a/a) (+25° C./60% RH, T0): 95.90% a/a | pH (+25° C./60% RH, T0): 6.8 | C (% initial) (+25° C./60% RH, T3 Months): 98.8% initial | P (% a/a) (+25° C./60% RH, T3 Months): 93.70% a/a | pH (+25° C./60% RH, T6 Months): 6.63 | C (% initial) (+40° C./75% RH, T1 Month): 52.0% initial | P (% a/a) (+40° C./75% RH, T1 Month): 95.9% a/a | C (% initial) (+40° C./75% RH, T3 Months): 29.0% initial | P (% a/a) (+40° C./75% RH, T3 Months): 95.5% a/a | pH (+40° C./75% RH, T3 Months): 5.60 | pH (+40° C./75% RH, T6 Months): 5.62
